From patent US20040131613A1 (published 2004)

Target: T1, human TNF-α (human, UniProt P01375 77-233)
T1 construct: It was biotinylated in the plaque lift and on-rate ELISA, and coated on plates or beads in the other assays; also called hTNF-α; hTNF
Test: kinetic exclusion assay (KinExA 3000), 40 pM Fab with 400 pM hTNF-α, time course
Procedure: Next, binding kinetics of three of the Fab fragments described in Table 4 were determined in a kinetic exclusion assay. Affinity measurements were performed on a KinExA™3000 instrument (Sapidyne Instruments, Inc., Boise, Id.) using Fab fragments (A10K, A9K, and A10P) released from the periplasmic space whose concentration was determined by a quantitative ELISA. Briefly, antigen and antibody fragment were allowed to react in solution and the fraction of unbound reagent was determined by capture and measured on a bead support. Binding kinetics can be determined or calculated from the amount of unbound reagent. For instance, after interaction between TNF-α and a Fab fragment has occurred in solution, binding of the unreacted, free Fab fragment to TNF-α coated beads can be measured on the instrument by detection with a labeled secondary antibody to the Fab fragment (e.g., a goat anti-IgG (heavy and light)). […] After the incubation, the amount of unbound Fab in the equilibrated samples was determined on the KinExA™3000 instrument according to the manufacturer's instructions. Kd values were determined by the instrument software.
To measure kₒₙ, individual Fab fragments at a concentration of 40 pM were mixed with 400 pM of hTNF-α. […] The resulting data was used to calculate the kₒₙ with the instrument software. koff was calculated by using the formula Kd=koff/kₒₙ.

T1 sequence (P01375 77-233 limits assumed): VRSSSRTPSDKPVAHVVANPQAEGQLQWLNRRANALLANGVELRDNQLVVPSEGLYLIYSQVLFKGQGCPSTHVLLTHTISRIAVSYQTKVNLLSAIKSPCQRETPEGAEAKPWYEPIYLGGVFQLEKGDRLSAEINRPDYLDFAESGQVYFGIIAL

kon: 3.92e+06 to 7.51e+06 M⁻¹ s⁻¹
B1: A10K Fab fragment (Fab, V domains shown)
VH: EVQLVESGGGLVQPGGSLRLSCAASGFKFSNHWMNWVRQAPGKGLEWVGEIRSKSMNSATHYAESVKGRFTISRDDSKNSLYLQMNSLKTEDTAVYYCARNYYGSTYDHWGQGTLVTVSS
VL: EIVLTQSPDFQSVTPKEKVTITCRASQFVGYSIHWYQQKPDQSPKLLIKYASESRSGVPSRFSGSGSGTDFTLTINSLEAEDAATYYCQQSHSWHFTFGQGTKVEIK
notes: Fab released from the E. coli periplasm; The light chain is kappa, since it was detected with anti-human kappa; Mutations against hu1: light S31Y, M55R
